Test results taken from patent publication US20200283475A1.

Target: human polyclonal IgG (Gammanorm) (human)
Experiment: SPR, ligand on chip; CIP cycles 1 M NaOH

Substance	Remaining capacity 100 cycles (%)
Zvar(Q9A,N11E,N28A,N43A)4 (designed binder)	55
Zvar(Q9A,N11E,Q40V,A42K,N43A,L44I)4 (designed binder)	56
Zvar(Q9A,N11E,Q40V,A42K,N43E,L44I)4 (designed binder)	54

Target: human polyclonal IgG (Gammanorm) (human)
Experiment: SPR; ratio to reference Zvar4

Substance	Capacity relative to ref. 100 cycles	Capacity relative to ref. 200 cycles	Capacity relative to ref. 300 cycles
Zvar(Q9A,N11E,D37E,Q40V,A42K,N43A,L44I)4 (designed binder)	1.13		
Zvar(Q9A,N11E,D37E,Q40V,A42R,N43A,L44I)4 (designed binder)	1.17		
Zvar(Q9A,N11E,N28A,Q40V,A42K,N43A,L44I)4 (designed binder)	1.24		
Zvar(Q9A,N11E,Q40V,A42K,N43A,L44I)4 (designed binder)	1.34	2.06	3.56

The remaining lines, values ahead:

Capacity relative to ref. 100 cycles	Capacity relative to ref. 200 cycles	Capacity relative to ref. 300 cycles	Substance
1.19	1.72	2.62	Zvar(Q9A,N11E,N28A,N43A)4 (designed binder)
1.21	1.72	2.56	Zvar(Q9A,N11E,N43A)4 (designed binder)
1.25	1.81	3	Zvar(Q9A,N11E,Q40V,A42K,N43E,L44I)4 (designed binder)

Target: human polyclonal IgG (Gammanorm) (human)
Experiment: column breakthrough, ligand […]; after 24 h 0.5 M NaOH

Substance	Remaining IgG capacity Qb10 after six 4 h cycles [mg/mL]	Remaining IgG capacity after six 4 h cycles (%)
Zvar(Q9A,N11E,N28A,N43A)4 with an additional N-terminal cysteine (designed binder)	46.2	93

Target: human polyclonal IgG (Gammanorm) (human)
Experiment: column breakthrough, agarose beads, ligand […], 6 min residence

Substance	Initial IgG capacity Qb10 [mg/mL]
Zvar(Q9A,N11E,N28A,N43A)4 with an additional N-terminal cysteine (designed binder)	50

Target: human polyclonal IgG (Gammanorm) (human)
Experiment: SPR; ratio to reference Zvar2

Substance	Capacity relative to ref. 100 cycles
Zvar(Q9A,N11E,Q40V,A42K,N43A,L44I)2 with A56, P57 and K58 in linker deleted (designed binder)	1.26
Zvar(Q9A,N11E,Q40V,A42K,N43A,L44I)2 with D2, A3 and K4 in linker deleted (designed binder)	1.27
Zvar(Q9A,N11E,Q40V,A42K,N43A,L44I)2 with K4, F5, D6, K7 and E8 in linker deleted (designed binder)	1.3
Zvar(Q9A,N11E,Q40V,A42K,N43A,L44I)2 with K58, V1 and D2 in linker deleted (designed binder)	1.38
Zvar(Q9A,N11E,Q40V,A42K,N43A,L44I)2 with P57, K58, V1, D2 and A3 in linker deleted (designed binder)	1.35
Zvar(Q9A,N11E,Q40V,A42K,N43A,L44I)2 with V1, D2 and A3 in linker deleted (designed binder)	1.39
Zvar(Q9A,N11E,Q40V,A42K,N43A,L44I)2 with V1, D2, A3, K4, F5, D6, K7 and E8 in linker deleted (designed binder)	1.13
Zvar(Q9A,N11E,Q40V,A42K,N43A,L44I)2 with YEDG inserted in linker between K58 and V1 (designed binder)	1.31

Target: human polyclonal IgG (Gammanorm) (human)
Experiment: SPR, ligand on chip; CIP cycles 0.5 M NaOH

Substance	Remaining capacity 100 cycles (%)	Remaining capacity 200 cycles (%)	Remaining capacity 300 cycles (%)
Zvar(Q9A,N11E,D37E,Q40V,A42K,N43A,L44I)4 (designed binder)	81		
Zvar(Q9A,N11E,D37E,Q40V,A42R,N43A,L44I)4 (designed binder)	84		
Zvar(Q9A,N11E,N28A,Q40V,A42K,N43A,L44I)4 (designed binder)	84		
Zvar(Q9A,N11E,Q40V,A42K,N43A,L44I)2 with K4, F5, D6, K7 and E8 in linker deleted (designed binder)	70		
Zvar(Q9A,N11E,Q40V,A42K,N43A,L44I)4 (designed binder)	90	74	57

More lines, now with the values ahead:

Remaining capacity 100 cycles (%)	Remaining capacity 200 cycles (%)	Remaining capacity 300 cycles (%)	Substance
80	62	42	Zvar(Q9A,N11E,N28A,N43A)4 (designed binder)
81	62	41	Zvar(Q9A,N11E,N43A)4 (designed binder)
68			Zvar(Q9A,N11E,Q40V,A42K,N43A,L44I)2 with A56, P57 and K58 in linker deleted (designed binder)
70			Zvar(Q9A,N11E,Q40V,A42K,N43A,L44I)2 with D2, A3 and K4 in linker deleted (designed binder)
76			Zvar(Q9A,N11E,Q40V,A42K,N43A,L44I)2 with K58, V1 and D2 in linker deleted (designed binder)
74			Zvar(Q9A,N11E,Q40V,A42K,N43A,L44I)2 with P57, K58, V1, D2 and A3 in linker deleted (designed binder)
75			Zvar(Q9A,N11E,Q40V,A42K,N43A,L44I)2 with V1, D2 and A3 in linker deleted (designed binder)
62			Zvar(Q9A,N11E,Q40V,A42K,N43A,L44I)2 with V1, D2, A3, K4, F5, D6, K7 and E8 in linker deleted (designed binder)
72			Zvar(Q9A,N11E,Q40V,A42K,N43A,L44I)2 with YEDG inserted in linker between K58 and V1 (designed binder)
84	65	48	Zvar(Q9A,N11E,Q40V,A42K,N43E,L44I)4 (designed binder)

Target: human polyclonal IgG (Gammanorm) (human)
Experiment: SPR, 1 M NaOH; ratio to reference Zvar4

Substance	Capacity relative to ref. 100 cycles
Zvar(Q9A,N11E,N28A,N43A)4 (designed binder)	2.04
Zvar(Q9A,N11E,Q40V,A42K,N43A,L44I)4 (designed binder)	2.07
Zvar(Q9A,N11E,Q40V,A42K,N43E,L44I)4 (designed binder)	2

Target: human polyclonal IgG (Gammanorm) (human)
Experiment: column breakthrough, ligand 7.0 mg/ml; after 24 h 0.5 M NaOH

Substance	Remaining IgG capacity Qb10 after six 4 h cycles [mg/mL]	Remaining IgG capacity after six 4 h cycles (%)
Zvar(Q9A,N11E,N28A,N43A)4 with an additional N-terminal cysteine (designed binder)	44.1	90

Target: human polyclonal IgG (Gammanorm) (human)
Experiment: SPR; ratio of remaining capacity to reference Zvar1

Substance	Capacity relative to reference
Zvar(N11K,H18K,D37E,A42R,N43A,L44I)1 (designed binder)	1.31
Zvar(Q9A,N11E,A29D,Q40V,A42K,N43A,L44I)1 (designed binder)	1.19
Zvar(Q9A,N11E,A29E,Q40V,A42K,N43A,L44I)1 (designed binder)	1.21
Zvar(Q9A,N11E,A29L,Q40V,A42K,N43A,L44I)1 (designed binder)	1.33
Zvar(Q9A,N11E,A29M,Q40V,A42K,N43A,L44I)1 (designed binder)	1.32
Zvar(Q9A,N11E,A29N,Q40V,A42K,N43A,L44I)1 (designed binder)	1.3
Zvar(Q9A,N11E,A29T,Q40V,A42K,N43A,L44I)1 (designed binder)	1.28
Zvar(Q9A,N11E,A29V,Q40V,A42K,N43A,L44I)1 (designed binder)	1.32
Zvar(Q9A,N11E,A29W,Q40V,A42K,N43A,L44I)1 (designed binder)	1.3
Zvar(Q9A,N11E,Q40V,A42K,N43A,L44I,D53F)1 (designed binder)	1.26
Zvar(Q9A,N11E,Q40V,A42K,N43A,L44I,D53R)1 (designed binder)	1.3
Zvar(Q9A,N11E,Q40V,A42K,N43A,L44I,D53W)1 (designed binder)	1.35
Zvar(Q9A,N11E,Q40V,A42K,N43del,L44I)1 (designed binder)	1.2
Zvar(Q9A,N11E,Q40V,A42del,N43A,L44I)1 (designed binder)	1.24
Zvar(Q9A,N11K,H18K,D37E,A42R,N43A,L44I,K50R)1 (designed binder)	1.49
Zvar(Q9A,N11K,H18K,S33K,D37E,A42R,N43A,L44I,K50R,L51Y)1 (designed binder)	1.28
Zvar(Q9del,N11E,Q40V,A42K,N43A,L44I)1 (designed binder)	1.3

Now from value to substance:

Capacity relative to reference	Substance
1.04	Zvar(N11E,Q32E,K50R)1 (designed binder)
1.46	Zvar(N11K,H18K,S33K,D37E,A42R,N43A,L44I,K50R,L51Y)1 (designed binder)
1.35	Zvar(Q9A,N11E,A29F,Q40V,A42K,N43A,L44I)1 (designed binder)
1.21	Zvar(Q9A,N11E,A29H,Q40V,A42K,N43A,L44I)1 (designed binder)
1.23	Zvar(Q9A,N11E,A29I,Q40V,A42K,N43A,L44I)1 (designed binder)
1.28	Zvar(Q9A,N11E,A29K,Q40V,A42K,N43A,L44I)1 (designed binder)
1.28	Zvar(Q9A,N11E,A29Q,Q40V,A42K,N43A,L44I)1 (designed binder)
1.26	Zvar(Q9A,N11E,A29R,Q40V,A42K,N43A,L44I)1 (designed binder)
1.38	Zvar(Q9A,N11E,A29S,Q40V,A42K,N43A,L44I)1 (designed binder)
1.27	Zvar(Q9A,N11E,A29Y,Q40V,A42K,N43A,L44I)1 (designed binder)
1.35	Zvar(Q9A,N11E,N28A,Q40V,A42K,N43A,L44I)1 (designed binder)
1.41	Zvar(Q9A,N11E,Q40V,A42K,N43A,L44I,D53K)1 (designed binder)
1.28	Zvar(Q9A,N11E,Q40V,A42K,N43A,L44I,D53Y)1 (designed binder)
1.28	Zvar(Q9A,N11E,Q40del,A42K,N43A,L44I)1 (designed binder)
1.4	Zvar(Q9A,N11K,H18K,D37E,A42R,N43A,L44I)1 (designed binder)

Target: human polyclonal IgG (Gammanorm) (human)
Experiment: SPR, ligand on chip; signal left after 96-100 CIP cycles 0.5 M NaOH

Substance	Capacity after 96-100 cycles [%]
Zvar(N11K,H18K,D37E,A42R,N43A,L44I)1 (designed binder)	59
Zvar(Q9A,N11E,A29D,Q40V,A42K,N43A,L44I)1 (designed binder)	56
Zvar(Q9A,N11E,A29E,Q40V,A42K,N43A,L44I)1 (designed binder)	57
Zvar(Q9A,N11E,A29L,Q40V,A42K,N43A,L44I)1 (designed binder)	61
Zvar(Q9A,N11E,A29M,Q40V,A42K,N43A,L44I)1 (designed binder)	62
Zvar(Q9A,N11E,A29N,Q40V,A42K,N43A,L44I)1 (designed binder)	61
Zvar(Q9A,N11E,A29T,Q40V,A42K,N43A,L44I)1 (designed binder)	60
Zvar(Q9A,N11E,A29V,Q40V,A42K,N43A,L44I)1 (designed binder)	62
Zvar(Q9A,N11E,A29W,Q40V,A42K,N43A,L44I)1 (designed binder)	60
Zvar(Q9A,N11E,Q40V,A42K,N43A,L44I,D53F)1 (designed binder)	58
Zvar(Q9A,N11E,Q40V,A42K,N43A,L44I,D53R)1 (designed binder)	60
Zvar(Q9A,N11E,Q40V,A42K,N43A,L44I,D53W)1 (designed binder)	62
Zvar(Q9A,N11E,Q40V,A42K,N43del,L44I)1 (designed binder)	55
Zvar(Q9A,N11E,Q40V,A42del,N43A,L44I)1 (designed binder)	57
Zvar(Q9A,N11K,H18K,D37E,A42R,N43A,L44I,K50R)1 (designed binder)	67
Zvar(Q9A,N11K,H18K,S33K,D37E,A42R,N43A,L44I,K50R,L51Y)1 (designed binder)	59
Zvar(Q9del,N11E,Q40V,A42K,N43A,L44I)1 (designed binder)	60

Next, values leading:

Capacity after 96-100 cycles [%]	Substance
53	Zvar(N11E,Q32E,K50R)1 (designed binder)
67	Zvar(N11K,H18K,S33K,D37E,A42R,N43A,L44I,K50R,L51Y)1 (designed binder)
62	Zvar(Q9A,N11E,A29F,Q40V,A42K,N43A,L44I)1 (designed binder)
57	Zvar(Q9A,N11E,A29H,Q40V,A42K,N43A,L44I)1 (designed binder)
58	Zvar(Q9A,N11E,A29I,Q40V,A42K,N43A,L44I)1 (designed binder)
59	Zvar(Q9A,N11E,A29K,Q40V,A42K,N43A,L44I)1 (designed binder)
60	Zvar(Q9A,N11E,A29Q,Q40V,A42K,N43A,L44I)1 (designed binder)
58	Zvar(Q9A,N11E,A29R,Q40V,A42K,N43A,L44I)1 (designed binder)
66	Zvar(Q9A,N11E,A29S,Q40V,A42K,N43A,L44I)1 (designed binder)
61	Zvar(Q9A,N11E,A29Y,Q40V,A42K,N43A,L44I)1 (designed binder)
65	Zvar(Q9A,N11E,N28A,Q40V,A42K,N43A,L44I)1 (designed binder)
65	Zvar(Q9A,N11E,Q40V,A42K,N43A,L44I,D53K)1 (designed binder)
59	Zvar(Q9A,N11E,Q40V,A42K,N43A,L44I,D53Y)1 (designed binder)
59	Zvar(Q9A,N11E,Q40del,A42K,N43A,L44I)1 (designed binder)
63	Zvar(Q9A,N11K,H18K,D37E,A42R,N43A,L44I)1 (designed binder)

Target: human polyclonal IgG (Gammanorm) (human)
Experiment: column breakthrough, agarose beads, ligand 7.0 mg/ml, 6 min residence

Substance	Initial IgG capacity Qb10 [mg/mL]
Zvar(Q9A,N11E,N28A,N43A)4 with an additional N-terminal cysteine (designed binder)	49.1
